# “And” between values parts separate entries of the source, which are not always exact repeats. Equal entries are not always repeated.
# B1: Ex. 14: fusion protein: 13-amino acid fragment of MEK-1 protein with antennapedia sequence at C-terminus of TRAIL121-281, MMP and uPA sites (protein)
# chain: RVAAHITGTRGRSNTLSSPNSKNEKALGRKINSWESSRSGHSFLSNLHLRNGELVIHEKGFYYIYSQTYFRFQEEIKENTKNDKQMVQYIYKYTSYPDPILLMKSARNSCWSKDAEYGLYSIYQGGIFELKENDRIFVSVTNEHLIDMDHEASFFGAFLVGGSPLGLAGRVVRDRQIKIWFQNRRMKWKKGMPKKKPTPIQLN
# modifications: synthesized, a fusion protein comprising: a fragment of TRAIL protein, a fragment of MEK-1 protein - an inhibitor of ERK activation, cleavage sites recognized by uPA and MMP, an antennapedia transporting domain and a glycine- cysteine linker.
# B2: Ex. 2^a: fusion protein: 8-amino acid fragment of human fetoprotein (SEQ. No. 28) at N-terminus of TRAIL114-281, uPA cleavage site (protein)
# chain: EMTPVNPGRVVRERGPQRVAAHITGTRGRSNTLSSPNSKNEKALGRKINSWESSRSGHSFLSNLHLRNGELVIHEKGFYYIYSQTYFRFQEEIKENTKNDKQMVQYIYKYTSYPDPILLMKSARNSCWSKDAEYGLYSIYQGGIFELKENDRIFVSVTNEHLIDMDHEASFFGAFLVG
# modifications: synthesized, a fusion protein comprising: a fragment of TRAIL protein, a fragment of human fetoprotein and a cleavage site recognized by urokinase uPA.
# B3: Ex. 17: fusion protein: 13-amino acid fragment of tubulin with 6 arginine residues at N-terminus of TRAIL121-281, uPA and MMP sites (protein)
# chain: FRRKAFLHWYTGRRRRRRRRVVRPLGLAGRVAAHITGTRGRSNTLSSPNSKNEKALGRKINSWESSRSGHSFLSNLHLRNGELVIHEKGFYYIYSQTYFRFQEEIKENTKNDKQMVQYIYKYTSYPDPILLMKSARNSCWSKDAEYGLYSIYQGGIFELKENDRIFVSVTNEHLIDMDHEASFFGAFLVG
# modifications: synthesized, a fusion protein comprising: a fragment of TRAIL protein, a fragment of tubulin peptide, cleavage sites recognized by urokinase uPA and metalloprotease MMP and an arginine transporting domain.
# notes: fusion protein: 13-amino acid fragment of tubulin with 6 arginine residues at N-terminus of TRAIL121-281, uPA and MMP sites
# Columns and labels:
# MES-SA = experiment: MTT cytotoxicity test, MES-SA (human uterine sarcoma); assay type: cell-based; conditions: continuous incubation over 72 h, test MTT
# Excerpt: (§1) MTT assay is a colorimetric assay used to measure proliferation, viability and cytotoxicity of cells. It consists in decomposition of a yellow tetrazolium salt MTT (4,5-dimethyl-2-thiazolyl)-2,5-diphenyltetrazolium bromide) to the water-insoluble purple dye formazan by mitochondrial enzyme succinate-tetrazolium reductase 1. MTT reduction occurs only in living cells. Data analysis consists in determining IC50 concentration of the protein (in ng/ml), at which the 50% reduction in the number of cells occurs in the population treated compared to control cells. Results were analyzed using GraphPad Prism 5.0 software. The test was performed according to the literature descriptions (Cells, J E, (1998). Cell Biology, a Laboratory Handbook, second edition, Academic Press, San Diego; Yang, Y., Koh, L W, Tsai, J H., (2004); Involvement of viral and chemical factors with oral cancer in Taiwan, Jpn J Clin Oncol, 34 (4), 176-183). Cell culture medium was diluted to a defined density (10^4-10^5 cells per 100 μl). Then 100 μl of appropriately diluted cell suspension was applied to a 96-well plate in triplicates. Thus prepared cells were incubated for 24 h at 37° C. in 5% or 10% CO2, depending on the medium used, and then to the cells (in 100 μl of medium) further 100 μl of the medium containing various concentrations of tested proteins were added. In the case of combination hTRAIL114-281 and p21WAF effector protein, 100 μl of the medium containing mixture of hTRAIL114-281 and p21WAF effector protein in molar ratio 1:1 was added. After incubation of the cells with tested proteins over the period of next 72 hours, which is equivalent to 3-4 times of cell division, the medium with the test protein was added with […] of MTT working solution [5 mg/ml], and incubation was continued for 3 h at 37° C. in 5% CO2. Then the medium with MTT solution was removed, and formazan crystals were dissolved by adding 100 μl of DMSO. After stirring, the absorbance was measured at 570 nm (reference filter 690 nm).
# (§2) The results of in vitro cytotoxicity tests are summarized as IC50 values (ng/ml), which corresponds to the protein concentration at which the cytotoxic effect of fusion proteins is observed at the level of 50% with respect to control cells treated only with solvent. Each experiment represents the average value of at least two independent experiments performed in triplicates. As a criterion of lack of activity of protein preparations the IC50 limit of 2000 ng/ml was adopted.
# MCF10A = experiment: MTT cytotoxicity test, MCF10A (mammary epithelial cells); assay type: cell-based; conditions: continuous incubation over 72 h, test MTT
# Excerpt: as §1, §2
# A549 = experiment: MTT cytotoxicity test, A549 (human lung cancer); assay type: cell-based
# Excerpt: as §1, §2
# SK-MES-1 = experiment: MTT cytotoxicity test, SK-MES-1 (human lung cancer); assay type: cell-based; conditions: for SK-MES-1 mean (IC50): Table 4, mean/SD part
# Excerpt: as §1, §2
# [1] = tested on: TRAIL sensitive cell lines; experiment: in vitro cytotoxicity tests, TRAIL sensitive cell lines; assay type: cell-based; conditions: continuous incubation over 72 h, test MTT; versus rhTRAIL 95-281 (cell line not given)
# Excerpt: as §1, with “nm). […]” for “nm).”
# MES-SA/Dx5 = experiment: MTT cytotoxicity test, MES-SA/Dx5 (multidrug-resistant human uterine sarcoma); assay type: cell-based; conditions: for MES-SA/Dx5 mean (IC50): Table 4, mean/SD part
# Excerpt: as §1, §2
# Cells selected for this test included tumor cell lines that are naturally resistant to TRAIL protein (the criterion of natural resistance to TRAIL: IC50 for TRAIL protein >2000), as well as tumor cell lines sensitive to TRAIL protein and resistant to doxorubicin line MES-SA/DX5 as a cancer line resistant to conventional anticancer medicaments.
# [2] = tested on: human colon cancer HCT116; experiment: HCT116 colon cancer xenograft in Crl:CD1-Foxn1^nu 1 mice; assay type: in vivo; conditions: HCT116, Crl:CD1-Foxn1^nu 1 mice, 10 mg/kg i.v., 10 daily applications with a two-day break after the first 5, 27th day
# Protocol: (§3) Antitumor activity of protein preparations was tested in a mouse model of human colon cancer HCT116, human colon cancer Colo205, human colon cancer model SW620, human liver cancer model HepG2, and human lung cancer models NCI-H460 and NCI-H460-Luc2.
# (§4) The HCT116 (in mice Crl:CD1-Foxn1^nu 1), Colo205, NCI-H460, NCI-H460-Luc2 cells were maintained in RPMI 1640 medium (Hyclone, Logan, Utah, USA) mixed in the ratio of 1:1 with Opti-MEM (Invitrogen, Cat.22600-134) supplemented with 10% fetal calf serum and 2 mM glutamine. On the day of mice grafting, the cells were detached from the support by washing the cells with trypsin (Invitrogen), then the cells were centrifuged at 1300 rpm, 4° C., 8 min., suspended in HBSS buffer (Hanks medium), counted and diluted to the concentration of 25×10^6 cells/ml.
# (§5) Examination of antitumor activity of proteins of the invention was conducted on 7-9 week-old CD-nude (Crl:CD1-Foxn1^nu 1) or 4-6 week-old Crl:SHO-Prkdc^scidHr^hr mice obtained from Charles River Germany. Mice were kept under specific pathogen-free conditions with free access to food and demineralised water (ad libitum). All experiments on animals were carried in accordance with the guidelines: “Interdisciplinary Principles and Guidelines for the Use of Animals in Research. […]
# NCI-H460 = conditions: Table 4, mean/SD part
# UM-UC-3 = experiment: MTT cytotoxicity test, UM-UC-3 (human bladder cancer); assay type: cell-based; conditions: Table 4, mean/SD part
# Excerpt: (§6) MTT assay is a colorimetric assay used to measure proliferation, viability and cytotoxicity of cells. It consists in decomposition of a yellow tetrazolium salt MTT (4,5-dimethyl-2-thiazolyl)-2,5-diphenyltetrazolium bromide) to the water-insoluble purple dye formazan by mitochondrial enzyme succinate-tetrazolium reductase 1. MTT reduction occurs only in living cells. Data analysis consists in determining IC50 concentration of the protein (in ng/ml), at which the 50% reduction in the number of cells occurs in the population treated compared to control cells. Results were analyzed using GraphPad Prism 5.0 software. The test was performed according to the literature descriptions (Cells, J E, (1998). Cell Biology, a Laboratory Handbook, second edition, Academic Press, San Diego; Yang, Y., Koh, L W, Tsai, J H., (2004); Involvement of viral and chemical factors with oral cancer in Taiwan, Jpn J Clin Oncol, 34 (4), 176-183). Cell culture medium was diluted to a defined density (10^4-10^5 cells per 100 μl). Then 100 μl of appropriately diluted cell suspension was applied to a 96-well plate in triplicates. […] After stirring, the absorbance was measured at 570 nm (reference filter 690 nm). […]
# NIH: OVCAR-3 = experiment: MTT cytotoxicity test, NIH: OVCAR-3 (human ovarian cancer); assay type: cell-based; conditions: Table 4, mean/SD part
# Excerpt: as §6
# [3] = tested on: human lung cancer NCI-H460-Luc2; experiment: NCI-H460-Luc2 lung cancer xenograft in Crl:CD1-Foxn1nu 1 mice; assay type: in vivo; conditions: NCI-H460-Luc2, Crl:CD1-Foxn1nu 1 mice, 20 mg/kg i.v. six times every second day, 30th day
# Protocol: as §3, §4, §5
# HT-29 = experiment: MTT cytotoxicity test, HT-29 (human colorectal cancer); assay type: cell-based; conditions: Table 4, mean/SD part; listed as Ex. 17^a
# Excerpt: as §6
# [4] = continuous incubation over 72 h, test MTT
Molecule,MES-SA IC50 (MES-SA),MCF10A IC50 (MCF10A),A549 IC50 (A549; [4]),HCT116 IC50 (HCT-116; [4]),SK-MES-1 IC50 (SK-MES-1; [4]),IC50 [1],MES-SA/Dx5 IC50 (MES-SA/Dx5; [4]),"HCT116 mean (IC50) (HCT-116; Table 4, mean/SD part)",tumor growth inhibition (TGI) relative to the control [2],NCI-H460 mean (IC50) (NCI-H460),SK-MES-1 mean (IC50) (SK-MES-1),UM-UC-3 mean (IC50) (UM-UC-3),OVCAR-3 mean (IC50) (NIH: OVCAR-3),MES-SA/Dx5 mean (IC50) (MES-SA/Dx5),tumor growth inhibition (TGI) relative to the control [3],"A549 mean (IC50) (A549; Table 4, mean/SD part)",MES-SA/Dx5 mean (IC50) (MES-SA/Dx5; listed as Ex. 17^a),HT 29 mean (IC50) (HT-29)
B1,0.2312 µg/mL,>2 µg/mL,1.767 µg/mL,0.1235 µg/mL,0.02848 µg/mL,0.049 µg/mL,0.01373 µg/mL,–,–,–,–,–,–,–,–,–,–,–
B2,–,–,–,–,–,–,–,0.06 µg/mL and 0.06087 µg/mL,71.2%,4.246 µg/mL,0.01888 µg/mL,0.03506 µg/mL,0.0261 µg/mL,0.01896 µg/mL,81.3%,–,–,–
B3,–,–,–,–,–,–,–,–,–,–,0.08119 µg/mL,–,–,–,–,2.887 µg/mL,0.07596 µg/mL and 0.04426 µg/mL,6.808 µg/mL and 7.818 µg/mL

# Reference: patent US20140031283A1, “ANTICANCER FUSION PROTEIN” (ADAMED SP. Z O.O., priority 2011, published 2014)
